Reference: article PMC12492669, “Malic enzyme-based system for transhydrogenation between nicotinamide cofactors” (Synthetic and Systems Biotechnology, 2025)

Columns and labels:
[1] = substrate: NC(=O)C1=CN([C@@H]2O[C@H](COP(=O)(O)OP(=O)(O)OC[C@H]3O[C@@H](n4cnc5c(N)ncnc54)[C@H](O)[C@@H]3O)[C@@H](O)[C@H]2O)C=CC1; assay: initial rates of pyruvate reduction, Michaelis-Menten fit; type: biochemical, Lactobacillus helveticus; settings: 10 mM pyruvate, 50 mM HEPES pH 7.5, 25 °C, varied: cofactor
[2] = substrate: NC(=O)C1=CN([C@@H]2O[C@H](COP(=O)(O)OP(=O)(O)OC[C@H]3O[C@@H](n4ccc(N)nc4=O)[C@H](O)[C@@H]3O)[C@@H](O)[C@H]2O)C=CC1; assay: as above; type: biochemical, Lactobacillus helveticus; settings: 10 mM pyruvate, 50 mM HEPES pH 7.5, 25 °C, varied: cofactor
[3] = substrate: NC(=O)C1=CN([C@@H]2O[C@H](COP(=O)(O)OP(=O)(O)OC[C@H]3O[C@@H](n4cnc5c(N)ncnc54)[C@H](OP(=O)(O)O)[C@@H]3O)[C@@H](O)[C@H]2O)C=CC1; assay: as above; type: biochemical, Lactobacillus helveticus; settings: 10 mM pyruvate, 50 mM HEPES pH 7.5, 25 °C, varied: cofactor
[4] = substrate: NC(=O)C1=CN([C@@H]2O[C@H](COP(=O)(O)OP(=O)(O)OC[C@H]3O[C@@H](n4cnc5c(N)ncnc54)[C@H](O)[C@@H]3O)[C@@H](O)[C@H]2O)C=CC1; assay: purified protein, by the assay type; set-up: initial rates at varied cofactor, absorbance at 340 nm, Michaelis-Menten fit, pH 7.5, 25 °C; settings: pH 7.5; 25.0 °C
Method: (§1) For malic enzymes involved in oxidative decarboxylation, the solution contained 5 mM L-malate and 2 mM MgCl2. For malic enzymes involved in reductive carboxylation, the solution included 10 mM pyruvate, 30 mM NaHCO3 and 2 mM MgCl2. For DLDH∗ involved in pyruvate reduction, initial pyruvate concentration was 10 mM. All reactions were performed in 50 mM HEPES (pH 7.5) at 25 °C, with kinetic data fitted to the Michaelis-Menten equation via nonlinear regression using GraphPad Prism 10.0.2. All assays were performed in triplicate, and error bars show standard deviation. Enzyme activity assays of pure enzymes were conducted in a total volume of 0.1 mL. […] The enzyme activity was monitored by measuring the absorbance at 340 nm using a microplate spectrophotometer (Bio-Tek, VT, USA), with continuous absorbance tracking throughout the assay. One unit of pure enzyme activity was defined as the amount of enzyme required to catalyze the production of 1 μmol NADH, NCDH or NADPH per minute under the specified assay conditions. A molar absorption coefficient of 6220 M^−1 cm^−1 for NADH, NCDH or NADPH was used in the calculations.

[5] = substrate: NC(=O)C1=CN([C@@H]2O[C@H](COP(=O)(O)OP(=O)(O)OC[C@H]3O[C@@H](n4cnc5c(N)ncnc54)[C@H](OP(=O)(O)O)[C@@H]3O)[C@@H](O)[C@H]2O)C=CC1; assay: purified protein, by the assay type; set-up: initial rates at varied cofactor, absorbance at 340 nm, Michaelis-Menten fit, pH 7.5, 25 °C; settings: pH 7.5; 25.0 °C
Method: as §1

[6] = substrate: NC(=O)c1ccc[n+]([C@@H]2O[C@H](COP(=O)(O)OP(=O)(O)OC[C@H]3O[C@@H](n4cnc5c(N)ncnc54)[C@H](OP(=O)(O)O)[C@@H]3O)[C@@H](O)[C@H]2O)c1; assay: purified protein, by the assay type; set-up: initial rates at varied cofactor, absorbance at 340 nm, Michaelis-Menten fit, pH 7.5, 25 °C; settings: pH 7.5; 25.0 °C
Method: as §1

Protein	Km [1]	Km [2]	Km [3]	Km [4]	kcat [4]	kcat/Km [4]	Km [5]	kcat [5]	kcat/Km [5]	Km [6]	kcat [6]	kcat/Km [6]
DLDH∗ (D-lactate dehydrogenase, V152R/N213E mutant) (Lactobacillus helveticus; N213E/V152R) (protein, recombinant; only the V152R/N213E mutant tested; purification and tag not described in main text) TKVFAYAIRKDEEPFLNEWKEAHKDIDVDYTDKLLTPETAKLAKGADGVVVYQQLDYTADTLQALADAGVTKMSLRNVGVDNIDMDKAKELGFQITNVPVYSPNAIAEHAAIQAARVLRQDKRMDEKMAKRDLRWAPTIGREVRDQVVGVRGTGHIGQVFMRIMEGFGAKVIAYDIFKNPELEKKGYYVDSLDDLYKQADVISLHVPDVPAEVHMINDKSIAEMKDGVVIVNCSRGRLVDTDAVIRGLDSGKIFGFVMDTYEDEVGVFNKDWEGKEFPDKRLADLIDRPNVLVTPHTAFYTTHAVRNMVVKAFNNNLKLINGEKPDSPVALNKNKF	4840 µM	71.1 µM	2110 µM	–	–	–	–	–	–	–	–	–
ME (Escherichia coli K-12) (protein, wild-type, recombinant) MEPKTKKQRSLYIPYAGPVLLEFPLLNKGSAFSMEERRNFNLLGLLPEVVETIEEQAERAWIQYQGFKTEIDKHIYLRNIQDTNETLFYRLVNNHLDEMMPVIYTPTVGAACERFSEIYRRSRGVFISYQNRHNMDDILQNVPNHNIKVIVVTDGERILGLGDQGIGGMGIPIGKLSLYTACGGISPAYTLPVVLDVGTNNQQLLNDPLYMGWRNPRITDDEYYEFVDEFIQAVKQRWPDVLLQFEDFAQKNAMPLLNRYRNEICSFNDDIQGTAAVTVGTLIAASRAAGGQLSEKKIVFLGAGSAGCGIAEMIISQTQREGLSEEAARQKVFMVDRFGLLTDKMPNLLPFQTKLVQKRENLSDWDTDSDVLSLLDVVRNVKPDILIGVSGQTGLFTEEIIREMHKHCPRPIVMPLSNPTSRVEATPQDIIAWTEGNALVATGSPFNPVVWKDKIYPIAQCNNAFIFPGIGLGVIASGASRITDEMLMSASETLAQYSPLVLNGEGMVLPELKDIQKVSRAIAFAVGKMAQQQGVAVKTSAEALQQAIDDNFWQAEYRDYRRTSI	–	–	–	1080 ± 350 µM	1.88 ± 0.35 s⁻¹	1740 M⁻¹ s⁻¹	520 ± 120 µM	0.01 s⁻¹	20 M⁻¹ s⁻¹	11500 ± 1200 µM	0.58 ± 0.05 s⁻¹	50 M⁻¹ s⁻¹
